Test results: the supplement of paper PMC7125110
± gives the standard error. For part of these data: Variants at the floor of the assay were thinned out.

B1: glmS ribozyme (parent)
chain: AUAAAAGCGCCAGAACUACAGAAAUGUAGUUGACGAGGAGGAGGUUUAUCGAAUUUUCGGCGGAUGCCUCCAAA

Legend:
Settings in all cases: with glucosamine-6-phosphate
glucosamine-6-phosphate [1] = variants of: B1; assay: kcat; higher = faster cleavage; RNA array
Procedure, shortened: (§1)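 kobs was derived by fitting per-tile medians to one- or two-exponential decays after normalising signals to baseline and to non-cleaving reference variants. Those signals came from barcoded ribozyme variants transcribed in situ by E. coli RNA polymerase on sequenced MiSeq chips, followed through a hybridised Cy3 probe at 37 °C and imaged over ~14 h. Glucosamine-6-phosphate (40 μM to 10 mM) in HEPES/KCl/Mg(OAc)2 buffer was flowed in. Weighted Michaelis–Menten fits across concentrations then gave kcat and KM.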

glucosamine-6-phosphate [2] = variants of: B1; assay: KM; higher = weaker cofactor use; RNA array
Procedure, shortened: as §1

glucosamine-6-phosphate [3] = variants of: B1; assay: self-cleavage kobs at 640 uM GlcN6P; higher = faster cleavage; RNA array
Procedure, shortened: as §1

glucosamine-6-phosphate [4] = variants of: B1; assay: self-cleavage kobs at 2500 uM GlcN6P; higher = faster cleavage; RNA array
Procedure, shortened: as §1

glucosamine-6-phosphate [5] = variants of: B1; assay: self-cleavage kobs at 10000 uM GlcN6P; higher = faster cleavage; RNA array
Procedure, shortened: as §1

glucosamine-6-phosphate [6] = variants of: B1; assay: self-cleavage kobs at 40 uM GlcN6P; higher = faster cleavage; RNA array
Procedure, shortened: as §1

glucosamine-6-phosphate [7] = variants of: B1; assay: self-cleavage kobs at 160 uM GlcN6P; higher = faster cleavage; RNA array
Procedure, shortened: as §1

Variant	kcat (glucosamine-6-phosphate [1]) [s⁻¹]	KM (glucosamine-6-phosphate [2]) [µM]	self-cleavage kobs at 640 uM GlcN6P (glucosamine-6-phosphate [3]) [s⁻¹]	self-cleavage kobs at 2500 uM GlcN6P (glucosamine-6-phosphate [4]) [s⁻¹]	self-cleavage kobs at 10000 uM GlcN6P (glucosamine-6-phosphate [5]) [s⁻¹]	self-cleavage kobs at 40 uM GlcN6P (glucosamine-6-phosphate [6]) [s⁻¹]	self-cleavage kobs at 160 uM GlcN6P (glucosamine-6-phosphate [7]) [s⁻¹]
A12G U46G	0.000475 ± 2.8e-05	9040 ± 890	2.82e-05 ± 1.2e-05	0.000105 ± 1.5e-05	0.000248 ± 2.3e-05		
C10U U54C	2.54e-05 ± 7.7e-06			3.09e-05 ± 1.2e-05		< 1e-05	
G40C U49G	6.75e-05 ± 1.8e-05			5.43e-05 ± 1.5e-05	5.5e-05 ± 1.3e-05	< 1e-05	
C11G C67G	3.76e-05 ± 1.2e-05		5.1e-05 ± 1.3e-05				
C16G C68A	2.15e-05 ± 6.1e-06						
A15C A52G	0.000755 ± 0.00022	7750 ± 3200	6.9e-05 ± 1.1e-05	0.000164 ± 2e-05	0.000449 ± 5.5e-05		
C58G C70G	5.46e-05 ± 1.6e-05		7.73e-05 ± 2e-05	5.92e-05 ± 1.4e-05			4.69e-05 ± 1.8e-05
A6U U46G	0.000103 ± 5.5e-06	7260 ± 730		2.66e-05 ± 1.1e-05	5.95e-05 ± 1.5e-05		
G32A A64U	< 1e-05		< 1e-05			< 1e-05	< 1e-05
U57A C61G G62C A64G U65A G66U C67G U69C	3.85e-05 ± 9.7e-06			4.83e-05 ± 2e-05			
G32U G66U	9.79e-05 ± 9.9e-06	7290 ± 1700			5.66e-05 ± 1.4e-05		
G40C U65A	0.000379 ± 3.9e-05	1830 ± 350	0.0001 ± 1.9e-05	0.000199 ± 3.6e-05	0.000346 ± 6.3e-05		3.58e-05 ± 1.5e-05
A42U A64G	0.000148 ± 1.7e-05	1930 ± 650	3.08e-05 ± 7.7e-06	0.000102 ± 1.3e-05	0.00012 ± 1.1e-05		
A15G C61G	< 1e-05		< 1e-05	< 1e-05		< 1e-05	< 1e-05
G40C U55G	0.000581 ± 0.00017		0.000531 ± 0.0001	0.000712 ± 0.00015	0.00045 ± 8.6e-05		0.000102 ± 2.2e-05
U56C C70U	0.000177 ± 5e-06	1660 ± 120	4.77e-05 ± 6.2e-06	0.000111 ± 9.3e-06	0.00015 ± 1e-05		
C8U C71U	< 1e-05	25 ± 11	< 1e-05				
G44A U45A	0.00079 ± 0.0001	3190 ± 750	0.000128 ± 4.2e-05	0.000439 ± 0.00012	0.000579 ± 0.0001		
G29A C68G	3.6e-05 ± 1e-05		4.89e-05 ± 9.9e-06	3.97e-05 ± 1.1e-05			2.59e-05 ± 1.2e-05

Variant	kcat (glucosamine-6-phosphate [1]) [s⁻¹]	KM (glucosamine-6-phosphate [2]) [µM]	self-cleavage kobs at 640 uM GlcN6P (glucosamine-6-phosphate [3]) [s⁻¹]	self-cleavage kobs at 2500 uM GlcN6P (glucosamine-6-phosphate [4]) [s⁻¹]	self-cleavage kobs at 10000 uM GlcN6P (glucosamine-6-phosphate [5]) [s⁻¹]	self-cleavage kobs at 40 uM GlcN6P (glucosamine-6-phosphate [6]) [s⁻¹]	self-cleavage kobs at 160 uM GlcN6P (glucosamine-6-phosphate [7]) [s⁻¹]
A15G A36G	1.79e-05 ± 1.6e-07	8450 ± 150					
G9A A42G	1.5e-05 ± 2.2e-06					< 1e-05	
C16U A39G	0.0255 ± 0.0088	866 ± 400	0.00828 ± 0.0019	0.0177 ± 0.0063	0.0356 ± 0.0085	0.00133 ± 0.00019	0.00365 ± 0.00075
U31A G40U	0.00159 ± 0.00017	1080 ± 240	0.000444 ± 0.00018	0.00109 ± 0.00024	0.00148 ± 0.00022	6.29e-05 ± 1.4e-05	
G40A	0.0122 ± 0.00085	1310 ± 110	0.00372 ± 0.0003	0.00876 ± 0.0005	0.0103 ± 0.00063	0.000363 ± 7.8e-06	0.0012 ± 0.00012
A36C U46C	< 1e-05		< 1e-05		< 1e-05	< 1e-05	
A12C U30G	0.00614 ± 0.0015	5240 ± 1800	0.000671 ± 0.00015	0.00164 ± 0.00034	0.00422 ± 0.00051	6.93e-05 ± 1.4e-05	0.000166 ± 3.1e-05
U47A U54A	0.0235 ± 0.0067	1820 ± 700	0.00587 ± 0.001	0.0118 ± 0.0025	0.0314 ± 0.0084	0.000584 ± 0.00012	0.00186 ± 0.00037
A53C A64C	8.21e-05 ± 2.3e-05				6.96e-05 ± 1.6e-05		
G66A C68A	0.000285 ± 7.9e-05		0.000138 ± 2.7e-05	0.000313 ± 5.4e-05	0.000216 ± 4.2e-05		
C10G C11A	< 1e-05		< 1e-05			< 1e-05	
G26A	0.0116 ± 0.0035		0.0112 ± 0.0022	0.00852 ± 0.0022		0.00121 ± 0.00035	0.00345 ± 0.0008
A14U G37A	0.000902 ± 0.00022	3590 ± 1400	0.00012 ± 1.5e-05	0.00043 ± 5.9e-05	0.000648 ± 7.7e-05		6.22e-05 ± 1.3e-05
G60C C68G	1.2e-05 ± 1.5e-06						
C34G C50G G62A	2.47e-05 ± 3.6e-06						
G38U A53C C70U	< 1e-05			< 1e-05			
C16G C70A	3.75e-05 ± 1.5e-05			6.29e-05 ± 1.4e-05	2.51e-05 ± 1.1e-05		
G32C A42U	< 1e-05			< 1e-05			< 1e-05
